Results reported in patent US20240324599A1, “PESTICIDAL ENZYMES FOR USE ON NEMATODES, INSECTS, AND MOLLUSKS” (priority 2023, published 2024).
Where two headings read alike, the source gives them in different places.

Tests used:
Format in all cases: in vivo
[1] = test system: soybean cyst nematode (SCN, Heterodera glycines); assay: Controlled environment soybean seed treatment trial: SCN cysts on roots; conditions: for % Comparison to Control: base control = 100%
[2] = test system: SCN juveniles (SCN HG type 1.2.5.7, race 2); conditions: for Difference in Percent Death of Nematodes for 0 to 24 Hours: 40 μL of each treatment per well
Excerpt: To identify an additional esterase enzyme with efficacy in reducing SCN viability, we performed an in-vitro plate assay with a Pseudomonas sp. esterase (SEQ ID NO: 248) free enzyme direct treatment. The Pseudomonas sp. esterase (SEQ ID NO: 248) was produced by fermentation in Bacillus subtilis. The enzyme was cloned into a Bacillus expression plasmid p1797 with isopropyl β-d-1-thiogalactopyranoside (IPTG) inducible expression. The plasmid was transformed into B. subtilis, and the gene sequence was confirmed. The strain was grown in rich media until an optical density (OD) 0.2-0.5 was reached. Enzyme expression was then induced by addition of […] IPTG. Following the culture harvest, cells were removed by filtration through a […] filter. The culture filtrate containing the secreted enzyme was then collected and used for further applications.
(§1) SCN eggs were obtained from SCN HG type 1.2.5.7, race 2. Eggs were rinsed 4 times with sterile water. Eggs were transferred to a 6-well plate and resuspended in 5 mL of 3 mM ZnSO4. The plate was sealed with parafilm, covered with aluminum foil to prevent light from entering the plate, and placed in a plate growth chamber at 25° C. and 80% relative humidity. After 6-7 days of incubation, an estimate of hatched SCN juveniles was obtained from the well to determine the overall number of juveniles per 10 μL. The concentration of the hatchery solution was adjusted until it consisted of 20-30 juveniles per 10 μL.
Potato dextrose agar media containing chloramphenicol and chlortetracycline was prepared and added to sterile twenty-four-well cell culture plates (1 mL per well). The plates were divided according to the pre-determined N-value for each treatment (N=12-24). Each treatment being tested was added to the agar surface within each well at a rate of 40 μL per well. Without allowing the treatments to dry, 10 μL of the prepared nematode mixture was added to the agar surface within each well.
To quantify the treatments' effects on nematode viability, the nematodes were examined under a dissecting microscope at 20× magnification. Initial (T0) values for the number of live juveniles, number of dead juveniles and total number of juveniles were recorded immediately after preparation of each well. The plates were then wrapped in parafilm around the open edge, encased in aluminum foil, and placed in secondary containment. The secondary containment was placed in a plant growth chamber at 25° C. and 80% relative humidity. At approximately 24 hours post addition of juveniles, the plates were evaluated, and the number of live juveniles, dead juveniles and total number of juveniles were recorded (T24).
The difference in percent death at T0 vs T24 was calculated by subtracting the percent dead at TO [(#dead juveniles/total #juveniles)×100] from the percent dead at T24 [(#dead juveniles/#total juveniles originally present)×100]. […] If the ANOVA indicated a significant difference existed among treatments, Tukey's HSD post hoc test was used to perform a pairwise contrast between each set of treatments. Different letters denote statistically significant results at P<0.05.
as §1, with “from” for “from SCN”, “rinsed four” for “rinsed 4”, “and 80-90%” for “and 80%”, “from each” for “from the”
Potato dextrose agar media containing chloramphenicol and chlortetracycline was prepared and added to sterile twenty-four-well cell culture plates (1 mL per well). […]

[3] = test system: Steinernema feltiae; assay: In-vitro plate assay: Steinernema feltiae juvenile death after direct treatment; conditions: 40 μL per well (ILEVO 20 μL)
Protocol: To determine the effects of enzymes on an additional soil-dwelling nematode species (Steinernema feltiae), a NemAttack™ package containing approximately 5 million S. feltiae juveniles was purchased from ARBICO Organics. The nematodes arrived already hatched and dispersed within a powder. To prepare the nematodes for use, an aliquot of the dry nematode mixture was rehydrated in water. The liquid nematode mixture was adjusted to a concentration of 20-30 nematode juveniles per 10 μL. The free enzymes Esterase B (SEQ ID NO: 89) and Chitinase 19F (SEQ ID NO: 182) were produced as described in Example 2.
Potato dextrose agar media containing chloramphenicol and chlortetracycline was prepared and added to sterile twenty-four-well cell culture plates (1 mL per well). The plates were divided according to the pre-determined N-value for each treatment (N=12-24). […]
To quantify the treatments' effects on nematode viability, the nematodes were examined under a dissecting microscope at 20× magnification. Initial (T0) values for the number of live juveniles, number of dead juveniles and total number of juveniles were recorded immediately after preparation of each well. […] Approximately 20-22 hours post addition of juveniles, the plates were evaluated, and the number of live juveniles, dead juveniles and total number of juveniles were recorded. […]

[4] = Table 11, free enzyme seed treatment 2 fl oz/unit, soybean P18A98X, ILEVO 0.15 mg AI/seed, 3 weeks after inoculation, base control 71.4

Row | Molecule | % Comparison to Control ([1]; Table 11) | Average cysts per g of root tissue [1, 4] | Average cysts per g of root tissue ([1]; Table 15, seed treated with whole cell broth, base control 59.8) | % Comparison to Control ([1]; Table 15, whole cell broth) | % Comparison to Control ([1]; Table 25) | Average cysts per g of root tissue ([1]; Table 25, soybean 3230E3, dried (PVP) formulation 0.04 units/seed, liquid 2 fl oz/unit, base control 289.9) | Difference in Percent Death of Nematodes for 0 to 24 Hours ([2]; Table 28, fertilizer 3% v/v) | difference in percent death over twenty-four hours, single treatment relative to the combination Esterase B + 10-34-0 fertilizer ([2]; text to Table 28) | Difference in Percent Death of Nematodes for 0 to 20 Hours ([3]; Table 23, water control 3%) | % Comparison to Control ([1]; Table 12) | Average cysts per g of root tissue ([1]; Table 12, seed treatment 2 fl oz/unit, ILEVO 0.15 mg AI/seed, base control 376.9) | Difference in Percent Death of Nematodes for 0 to 24 Hours ([2]; Table 32, water only 4%) | difference in percent death during 24 hours ([2]; text to Table 32) | Difference in Percent Death of Nematodes for 0 to 22 Hours ([3]; Table 24, water control 7%)
1 | Bacillus subtilis Esterase (EstB without signal sequence) (protein, listed as Bacillus subtilis, Esterase (EstB H191 without signal sequence)) ESVHNPVVLVHGISGASYNFFAIKNYLISQGWQSNKLYAIDFYDKTGNNLNNGPQLASYVDRVLKETGAKKVDIVAHSMGGANTLYYIKYLGGGNKIQNVVTLGGANGLVSSTALPGTDPNQKILYTSIYSLNDQIVINSLSRLQGARNIQLYGIGHIGLLSNSQVNGYIKEGLNGGGLNTN | 27% | 19.6 cysts per g of root tissue | 56.3 cysts per g of root tissue | 94% | 80% | 233.2 cysts per g of root tissue | 3% | −7% | 33% | – | – | – | – | –
2 | Streptomyces coelicolor Chitinase F (Chi19F) (protein, Chitinase F (Chi19F); Streptomyces coelicolor) ASCSSYHAWSADANYNTGDIVRYTDGKAYIAEHANPGYDPLISTWYWDPYACDGGSQTPVGNFVVSEAQFNQMFPGRNSFYTYSGLTAALSAYPGFANTGSDTTKKQEAAAFLANVSHETGGLVYIVEQNTANYPHYCDWNQPYGCPAGQAAYYGRGPIQLSWNFNYKAAGDALGIDLLGNPWLVQNDAAVAWKTGLWYWNTQSGPGTMTPHNAMVNGAGFGQTIRSINGSLECDGKNPAQVQSRVTKYQQFAQILGVSPGGNLYC | 68% | 48.8 cysts per g of root tissue | – | – | – | – | – | – | – | 79% | 296.9 cysts per g of root tissue | 24% | 24% | 17%
